Test [1] concerns the target T1, DDR1 on T47D breast cancer cells (human, UniProt Q08345 19-913). As to the kind of experiment: cell-based or functional assay.
Test [2] has as its target DDR1 overexpressed on HEK293 cells (Homo sapiens (Human), UniProt Q08345 19-913). In words: cell-based or functional assay.
Test [3] deals with T1, DDR1 on T47D breast cancer cells. In words: cell-based or functional assay. The source holds these as a separate data set.
For test [4] the target is unchanged. As to the kind of experiment: cell-based or functional assay. This is another data set of the same source.
The target of test [5] is T2, mouse DDR1 extracellular domain (mouse, UniProt Q03146 22-415).
T2 construct: extracellular domain
T2 sequence (looked up): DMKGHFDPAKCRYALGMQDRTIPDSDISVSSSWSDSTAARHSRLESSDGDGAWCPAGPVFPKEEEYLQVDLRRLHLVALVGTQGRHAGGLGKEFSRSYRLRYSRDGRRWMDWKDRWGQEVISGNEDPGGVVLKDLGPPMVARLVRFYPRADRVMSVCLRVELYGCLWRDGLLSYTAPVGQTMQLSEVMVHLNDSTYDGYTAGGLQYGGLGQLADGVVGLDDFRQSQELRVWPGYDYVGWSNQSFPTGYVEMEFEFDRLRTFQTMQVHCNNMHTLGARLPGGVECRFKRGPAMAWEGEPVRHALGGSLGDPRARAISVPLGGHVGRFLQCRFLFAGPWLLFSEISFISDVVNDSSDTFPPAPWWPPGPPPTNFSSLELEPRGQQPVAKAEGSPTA
In words: SPR. On the technique in general: SPR reads the build-up and loss of mass on a sensor chip optically.

Where two headings read alike, the source gives them in different places.

T1 sequence (Q08345 19-913 limits assumed, stated change not applied): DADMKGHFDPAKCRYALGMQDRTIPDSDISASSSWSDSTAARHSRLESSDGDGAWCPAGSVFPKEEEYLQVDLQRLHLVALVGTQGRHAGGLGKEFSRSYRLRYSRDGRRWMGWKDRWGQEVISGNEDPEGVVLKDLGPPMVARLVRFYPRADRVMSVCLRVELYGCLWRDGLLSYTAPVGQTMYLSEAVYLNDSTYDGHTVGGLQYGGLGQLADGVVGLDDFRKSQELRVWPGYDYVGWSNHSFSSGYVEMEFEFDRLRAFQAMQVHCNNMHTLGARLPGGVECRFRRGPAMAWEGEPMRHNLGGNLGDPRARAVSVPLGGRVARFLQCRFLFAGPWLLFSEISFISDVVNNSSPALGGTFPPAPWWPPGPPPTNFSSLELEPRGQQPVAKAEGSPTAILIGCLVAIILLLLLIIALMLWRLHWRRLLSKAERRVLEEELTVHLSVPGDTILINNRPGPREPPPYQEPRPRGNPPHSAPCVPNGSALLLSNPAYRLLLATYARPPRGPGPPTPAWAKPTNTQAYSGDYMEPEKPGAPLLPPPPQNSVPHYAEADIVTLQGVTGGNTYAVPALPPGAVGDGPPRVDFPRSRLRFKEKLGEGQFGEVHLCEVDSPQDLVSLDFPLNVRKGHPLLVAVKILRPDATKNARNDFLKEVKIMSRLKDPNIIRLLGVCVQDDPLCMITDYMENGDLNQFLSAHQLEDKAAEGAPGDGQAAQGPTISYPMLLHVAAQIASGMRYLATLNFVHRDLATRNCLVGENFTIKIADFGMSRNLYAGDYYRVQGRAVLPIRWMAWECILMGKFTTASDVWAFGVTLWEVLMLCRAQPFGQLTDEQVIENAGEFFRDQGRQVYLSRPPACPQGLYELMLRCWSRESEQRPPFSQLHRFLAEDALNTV
Chain of DDR1 overexpressed on HEK293 cells (Q08345 19-913 limits assumed): as the sequence (Q08345 19-913 limits assumed, stated change not applied) above

B1: mAb #9H1 WT IgG1 Fc (antibody)
heavy: not shown
light: DIQMTQSPSSVSASVGDRVTITCQASQSIGSVLAWYQQKPGKAPKLLISGVFDLASGVPSRFSGSGSGTDFTLTISSLQPEDFATYYCQYIPYGSSPFGGGTKVEIKRTVAAPSVFIFPPSDEQLKSGTASVVCLLNNFYPREAKVQWKVDNALQSGNSQESVTEQDSKDSTYSLSSTLTLSKADYEKHKVYACEVTHQGLSSPVTKSFNRGEC
notes: also called humanized mAb #9H1 with wt IgG1Fc
Broadly, the Kd is the free concentration of one partner at which half of the binding sites on the other are occupied at equilibrium, for simple one-to-one binding. Turning to B1, the “IC50 for inhibiting Collagen I-induced phosphorylation of DDR1 in T47D cells” value in test [1] lay within 0.05 to 0.06 µg/mL. For the same molecule, in test [2], the “IC50 for 9H1-WT inhibition of DDR1 OE cell adhesion to collagen I-coated plates” value was about 0.065 µg/mL. The “IC50, inhibition of human collagen I (50 µg/ml)-induced DDR1 phosphorylation in T47D cells (pDDR1 normalised with vinculin), single experiment; unit taken from the axis [9H1] (µg/ml)” value was 0.05 µg/ml in test [3] and 0.09 µg/ml in test [4]. The same molecule yielded a Kd in test [5] of 17.6 nM.

B2: mAb #9H1 inert IgG1 Fc (antibody)
heavy: QVQLVESGGRVVQPGRSLRLSCTASGFSLNRYYMLWVRQAPGKGLEWIGTISYGDTTYYASWAKGRFTISRDNSKNTLYLQMNSLRAEDTAVYYCARADTGDNGYLGLQLWGQGTLVTVSSASTKGPSVFPLAPSSKSTSGGTAALGCLVKDYFPEPVTVSWNSGALTSGVHTFPAVLQSSGLYSLSSVVTVPSSSLGTQTYICNVNHKPSNTKVDKRVEPKSCDKTHTCPPCPAPEAEGAPSVFLFPPKPKDTLMISRTPEVTCVVVDVSHEDPEVKFNWYVDGVEVHNAKTKPREEQYNSTYRVVSVLTVLHQDWLNGKEYKCKVSNKALPSSIEKTISKAKGQPREPQVYTLPPSREEMTKNQVSLTCLVKGFYPSDIAVEWESNGQPENNYKTTPPVLDSDGSFFLYSKLTVDKSRWQQGNVFSCSVMHEALHNHYTQKSLSLSPGK
light: DIQMTQSPSSVSASVGDRVTITCQASQSIGSVLAWYQQKPGKAPKLLISGVFDLASGVPSRFSGSGSGTDFTLTISSLQPEDFATYYCQYIPYGSSPFGGGTKVEIKRTVAAPSVFIFPPSDEQLKSGTASVVCLLNNFYPREAKVQWKVDNALQSGNSQESVTEQDSKDSTYSLSSTLTLSKADYEKHKVYACEVTHQGLSSPVTKSFNRGEC
notes: No sentence equates the two names; also called humanized mAb #9H1 with inert IgG1Fc; humanized DDR1-9 1 inert IgG1 Fc
The molecule B2 gave a Kd in test [5] of 19 nM.

B3: mAb #33 inert IgG1 Fc (antibody, V domains shown)
VH: QSVEESGGRLVTPGGSLTLTCTVSGFSLSSYDMSWVRQAPGKGLEWIGISWNSGFVDYASWAKGRFSISKTSTTVDLKITSPTTEDTATYFCARLGADDIYYFNLWGPGTLVTISS
VL: ELVMTQTPASVEAAVGGTVTIKCQASETISSRLAWYQQKPGQPPKLLIYQASKLPSGVPSRFKGTGSGTEYTLTISDLECADAATYYCQGCYYGGGSFYDSAFGGGTEVVVKR
notes: also called chimeric rabbit/human mAb #33 with inert IgG1 Fc; chimeric mAb #33
What is called koff is the first-order rate constant of dissociation. Read a low koff as a long-lived complex. The kon is the second-order rate constant of association. The low end stands for slow association, the high end for fast association. Regarding B3, in test [5], the Kd was 1.01 nM, the koff came out at 0.00106 s⁻¹ and the kon amounted to 1.05e+06 M⁻¹ s⁻¹.

For the origin of these results see patent publication US20250369982A1 (INCENDIATHERAPEUTICS, published 2025).
